1 substance from article PMC6838084 can be followed below.

The target of test [1] is soluble C-terminal deletion mutant of human α2δ-1 with an N-terminal double strep II-tag (α2δ-1S NTST) (human). The test is described as follows: ELISA; ELISA-style titration; α2δ-1S NTST (20 µg/ml) coated; TSP-4 11-1,505 nM; TBS pH 7.4 without Ca2+; RT; apparent KD.
For test [2] the target is unchanged. As to the kind of experiment: ELISA; ELISA-style titration; α2δ-1S NTST (20 µg/ml) coated; TSP-4 11-1,505 nM; TBS pH 7.4 + 1 mM Ca2+; RT; apparent KD. On the technique in general: ELISA stands for enzyme-linked immunosorbent assay.
Test [3] deals with α2 peptide chain of human α2δ-1 with an N-terminal double strep II-tag (α2 NTST) (human). As to the kind of experiment: ELISA; ELISA-style ligand binding assay; α2δ-1S NTST (20 or 10 µg/ml) or α2 NTST (10 µg/ml) coated on 96-well plates; soluble TSP at a single concentration of 1,000 nM; TBS pH 7.4 with 1 mM Ca2+; 2 h at RT; detection with TSP-specific antibody/antiserum (Fig. 3A, 3C).

thrombospondin-4 (TSP-4), recombinant full-length rat, N-terminal double strep II-tag, sequence (P49744 43-980): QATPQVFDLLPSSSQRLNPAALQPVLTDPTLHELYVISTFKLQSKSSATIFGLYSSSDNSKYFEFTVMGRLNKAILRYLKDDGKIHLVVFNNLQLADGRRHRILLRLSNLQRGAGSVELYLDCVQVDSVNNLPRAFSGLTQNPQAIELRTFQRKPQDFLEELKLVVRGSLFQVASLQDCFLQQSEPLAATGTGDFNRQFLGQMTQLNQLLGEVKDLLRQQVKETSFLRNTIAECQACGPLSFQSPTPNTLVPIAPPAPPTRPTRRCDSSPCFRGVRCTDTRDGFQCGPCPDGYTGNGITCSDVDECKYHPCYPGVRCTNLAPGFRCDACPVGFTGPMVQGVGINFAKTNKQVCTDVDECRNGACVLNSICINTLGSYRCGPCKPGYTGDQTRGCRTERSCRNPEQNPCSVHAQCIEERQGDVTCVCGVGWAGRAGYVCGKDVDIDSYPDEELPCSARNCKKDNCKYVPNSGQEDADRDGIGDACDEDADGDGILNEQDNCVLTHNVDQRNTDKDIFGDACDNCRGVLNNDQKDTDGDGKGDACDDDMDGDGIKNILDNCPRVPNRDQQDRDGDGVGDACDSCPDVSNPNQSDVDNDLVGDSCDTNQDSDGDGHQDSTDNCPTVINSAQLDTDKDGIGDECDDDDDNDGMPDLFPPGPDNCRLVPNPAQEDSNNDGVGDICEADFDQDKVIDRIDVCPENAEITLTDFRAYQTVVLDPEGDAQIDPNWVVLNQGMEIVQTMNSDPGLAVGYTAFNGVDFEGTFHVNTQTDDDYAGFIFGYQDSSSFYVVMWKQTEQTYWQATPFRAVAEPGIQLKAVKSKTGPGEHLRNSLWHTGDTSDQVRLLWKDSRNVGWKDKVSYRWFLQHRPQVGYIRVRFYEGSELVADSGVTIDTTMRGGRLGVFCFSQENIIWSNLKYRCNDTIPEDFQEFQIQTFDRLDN

As for “thrombospondin-4 (TSP-4), recombinant full-length rat, N-terminal double strep II-tag (from UniProt P49744 43-980) (natural protein)”, the results for the Kd in test [1] and in test [2] were 198 nM and 153 nM, respectively. In addition, in test [3], the fold change of the binding signal against α2δ-1S NTST worked out at 2 fold.
